Numbering of substitutions follows the chain as printed.

Assay [1] has as its target T1, human CD228 (R&D Systems Custom02; Lot DCWR021505A) (human, UniProt P08582 20-709, limits assumed).
T1 construct: Bought custom protein coated on ELISA plates; also called CD228 protein; melanotransferrin
T1 sequence (looked up): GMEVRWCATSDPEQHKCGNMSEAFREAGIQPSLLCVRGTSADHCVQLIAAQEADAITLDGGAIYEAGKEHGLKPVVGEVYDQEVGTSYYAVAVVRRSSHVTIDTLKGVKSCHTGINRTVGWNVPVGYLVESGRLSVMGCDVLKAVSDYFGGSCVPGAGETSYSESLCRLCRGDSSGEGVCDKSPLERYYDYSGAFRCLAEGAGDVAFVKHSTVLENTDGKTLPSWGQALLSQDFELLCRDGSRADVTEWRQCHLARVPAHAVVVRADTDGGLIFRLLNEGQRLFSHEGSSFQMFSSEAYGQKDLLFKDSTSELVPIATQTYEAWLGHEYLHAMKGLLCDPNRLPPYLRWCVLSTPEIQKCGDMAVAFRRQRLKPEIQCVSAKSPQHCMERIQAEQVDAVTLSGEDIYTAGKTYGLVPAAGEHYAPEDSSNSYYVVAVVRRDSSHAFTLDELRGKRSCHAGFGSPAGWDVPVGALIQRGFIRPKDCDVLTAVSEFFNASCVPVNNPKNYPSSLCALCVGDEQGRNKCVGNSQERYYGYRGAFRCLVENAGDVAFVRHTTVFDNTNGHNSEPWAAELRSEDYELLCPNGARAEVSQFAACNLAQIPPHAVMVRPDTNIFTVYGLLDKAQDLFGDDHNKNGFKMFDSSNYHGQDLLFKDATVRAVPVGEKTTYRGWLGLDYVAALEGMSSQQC
Nature of the assay: ELISA, coated human CD228, pH 6.30. The method, then: (§1) Briefly, 100 ng of human CD228 (R&D Systems Custom02; Lot DCWR021505A) or BSA (Sigma; Catalog No. A7030-100G) were diluted in PBS and added to each well overnight at 4° C. Plates were then washed three times with PBS-T (EMD Millipore; Catalog No. 5246531EA). After washing, plates were blocked with 3% (w/v) BSA in PBS-T for 1 hour at room temperature. Excess blocking buffer was then removed and the primary antibody was added in 3-fold dilutions in diluent buffer (0.15M citrate-phosphate buffer pH 4.0-7.5) starting at an antibody concentration of 60 nM. After incubating for 1 hour at room temperature, the plates were washed 3 times and then incubated with secondary antibody (Goat anti-human IgG Fc-specific HRP-conjugated, Jackson ImmunoResearch code #109-035-098) in PBS-T with 1% BSA. After incubating for 30 minutes at room temperature, plates were washed 3 times. 100 μl TMB substrate (Life Technologies-, Cat #002023) was then added to each well. After incubating 10 minutes at room temperature, 100 μl H₂SO₄ was added to each well to stop the reaction, plates were covered with clear plate seal and read on an Envision at […]. pH-dependent binding for hL49 and nine variants with histidine substituted to alanine, glutamine, or tyrosine in the light chain CDRs are shown in FIG. 1A-1I. […] The triple mutants have lower affinity overall compared to hL49.
On the technique in general: An ELISA detects its analyte on a solid surface through an enzyme-linked reagent.

Assay [2] deals with T1, human CD228 (R&D Systems Custom02; Lot …). Nature of the assay: ELISA, coated human CD228, pH 7.40. On the procedure: as §1
For assay [3] the target is unchanged. Nature of the assay: BLI (Octet Red 384), antibody as ligand, antigen as analyte. On the procedure:
The binding kinetics of hL49, hL49_34Ala, and hL49_Tyr were determined using BioLayer Interferometry (BLI) technology in an Octet Red 384 instrument using the antibodies as the ligands and the antigen as the analyte. […] In contrast, hL49_34Tyr has a slower on-rate but a similar off-rate compared to wild-type hL49, which may explain its reduced affinity on cells.

Assay [4] has the same target. Nature of the assay: ELISA on CD228 protein, neutral pH (rounded form of Table 2, pH 7.40).
The target in assay [5] is T2, CD228 on A375 and A2058 cells (human, UniProt P08582 20-709).
T2 construct: whole, on cells; GPI-anchored cell surface protein; also called CD228 on A375 cells; CD228 on A2058 cells
T2 sequence (looked up): T1 sequence (looked up)
Nature of the assay: flow cytometry saturation binding on A375 cells (~18K receptors), neutral pH. The method, then:
(§2) The ability of various anti-CD228 antibodies to bind to CD228 on A375 cells, A2058 cells, and CD228 protein was evaluated at neutral pH using a saturation binding assay. Briefly, 1×10⁵ A2058 or A375 cells that have either 40,000 or 18,000 copies of CD228 respectively, were aliquoted per well of a 96-well v-bottom plates. Each CD228 antibody was added in concentrations ranging from 0.66 pM to 690 nM and incubated on ice for 60 minutes. Cells were pelleted and washed 3× with PBS/BSA followed by addition of 10 μg/ml of a PE labeled anti-human IgG goat secondary antibody and incubated on ice for an additional 60 minutes. Cells were pelleted and washed 3× with PBS/BSA and resuspended in 125 μL of PBS/BSA. Fluorescence was analyzed by flow cytometry, using percent of saturated fluorescent signal to determine percent bound and to subsequently calculate apparent KID. […] The histidine 34 variants show large differences for substitutions with alanine, glutamine, and tyrosine.
In general terms: A flow cytometer gives signals particle by particle.

In assay [6] the target is T2, CD228 on A375 and A2058 cells. The assay can be described thus: flow cytometry saturation binding on A2058 cells (~40K receptors), neutral pH. On the procedure:
as §2

Assay [7] has as its target T1, human CD228 (R&D Systems Custom02; Lot …). The assay can be described thus: ELISA, coated human CD228, pH 4.55. The method, then: as §1
Assay [8] has the same target. The assay can be described thus: ELISA, coated human CD228, pH 5.60. The method, then: as §1

B1: hL49 (antibody, V domains shown)
VH: QVQLQESGPGLVKPSETLSLTCTVSGDSITSGYWNWIRQPPGKGLEYIGYISDSGITYYNPSLKSRVTISRDTSKNQYSLKLSSVTAADTAVYYCARRTLATYYAMDYWGQGTLVTVSS
VL: DFVMTQSPLSLPVTLGQPASISCRASQSLVHSDGNTYLHWYQQRPGQSPRLLIYRVSNRFSGVPDRFSGSGSGTDFTLKISRVEAEDVGVYYCSQSTHVPPTFGQGTKLEIK
notes: Humanized antibody; Only variable domains are tied to it; also called hL49 HALC; hL49 WT
B1: the EC50 in assay [1] was found to be 136 nM; in assay [2], 1.76 nM; in assay [4], 1.8 nM; in assay [5], 1.1 nM; in assay [6], 0.6 nM. Moreover, in assay [3], the Kd was 13.1 nM. In addition, the “kobs” value in assay [3] came to 0.0853 s⁻¹. Besides, the koff in assay [3] came to 0.0011 s⁻¹. In assay [3], this molecule came in with a kon of 84200 M⁻¹ s⁻¹.

B2: hL49_27D_Tyr (antibody, V domains shown)
VH: B1 VH
VL: B1 VL with H31Y
notes: hL49 variant with the light chain CDR-L1 histidine 27D changed to tyrosine
For B2, the EC50 in assay [7] amounted to 335 nM; in assay [8], 5.16 nM; in assay [1] it was 0.96 nM; in assay [2], 0.72 nM; in assay [4], 0.7 nM; in assay [5], 1.1 nM. The molecule further came in with an EC50 in assay [6] of 0.7 nM.

B3: hL49_27D_Ala (antibody, V domains shown)
VH: B1 VH
VL: B1 VL with H31A
notes: hL49 variant with the light chain CDR-L1 histidine 27D changed to alanine
B3: the EC50 was determined as 460 nM in assay [7]; 9.14 nM in assay [8]; 0.99 nM in assay [1]; 0.55 nM in assay [2]; 0.6 nM in assay [4]; 1.1 nM in assay [5]. Also, the response in assay [6] was half-maximal at 0.6 nM (EC50).

B4: hL49_3X_Gln (antibody, V domains shown)
VH: B1 VH
VL: B1 VL with H31Q, H39Q, H98Q
notes: hL49 triple mutant: all three light chain CDR histidines changed to glutamine; also called 3X-Gin
Turning to B4, the EC50 in assay [1] is 52.6 nM; in assay [2], 14.6 nM; in assay [4], 14.6 nM; in assay [5], 2.1 nM; in assay [6], 1.3 nM.

B5: hL49_27D_Gln (antibody, V domains shown)
VH: B1 VH
VL: B1 VL with H31Q
notes: hL49 variant with the light chain CDR-L1 histidine 27D changed to glutamine
On to B5, for which the EC50 in assay [7] is 365 nM; in assay [8], 17.3 nM; in assay [1], 1.48 nM; in assay [2], 0.68 nM; in assay [4] it was 0.7 nM; in assay [5], 0.9 nM. In assay [6], this molecule had an EC50 of 0.5 nM.

B6: hL49_3X_Tyr (antibody, V domains shown)
VH: B1 VH
VL: B1 VL with H31Y, H39Y, H98Y
notes: hL49 triple mutant: all three light chain CDR histidines changed to tyrosine
As to B6, the EC50 in assay [1] was 74.6 nM; in assay [2], 5.43 nM; in assay [4], 5.4 nM; in assay [5], 2.1 nM; in assay [6], 1.3 nM.

B7: hL49_3X_Ala (antibody, V domains shown)
VH: B1 VH
VL: B1 VL with H31A, H39A, H98A
notes: hL49 triple mutant: all three light chain CDR histidines (two in CDR-L1, one in CDR-L3) changed to alanine
Take B7: the EC50 came to 108 nM in assay [7]; 405 nM in assay [8]; 73.8 nM in assay [1]; 4.46 nM in assay [2]; 4.5 nM in assay [4]; 1.4 nM in assay [5]. In assay [6], the concentration giving a half-maximal response (EC50) is 0.9 nM.

B8: hL49_34_Gln (antibody, V domains shown)
VH: B1 VH
VL: B1 VL with H39Q
notes: hL49 variant with the light chain CDR-L1 histidine 34 changed to glutamine
Consider B8, for which the EC50 in assay [8] came out at 169 nM; in assay [1], 23.4 nM; in assay [2] it was 1.65 nM; in assay [4], 1.7 nM; in assay [5], 5.5 nM; in assay [6], 2.1 nM.

B9: hL49_34_Tyr (antibody, V domains shown)
VH: B1 VH
VL: B1 VL with H39Y
notes: hL49 variant with the light chain CDR-L1 histidine 34 changed to tyrosine; also called hL49_H34Y; hL49_Tyr
As for B9, in assay [3], the affinity, expressed as Kd, was 132 nM; the “kobs” value came out at 0.0113 s⁻¹; the koff stood at 0.00132 s⁻¹; the kon is 10000 M⁻¹ s⁻¹. In assay [5], the EC50 was 79 nM. The molecule further showed a half-maximal effective concentration (EC50) in assay [6] of 11.2 nM.

B10: hL49_34_Ala (antibody, V domains shown)
VH: B1 VH
VL: B1 VL with H39A
notes: hL49 variant with the light chain CDR-L1 histidine 34 changed to alanine; also called hL49_H34A
Turning to B10, the EC50 in assay [8] is 271 nM; in assay [1], 16.5 nM; in assay [2], 1.2 nM; in assay [4], 1.2 nM; in assay [5] it was 1.6 nM; in assay [6], 1.3 nM. For the same molecule, the Kd in assay [3] came out at 15.8 nM. The “kobs” value in assay [3] was 0.282 s⁻¹. The molecule further displayed a koff in assay [3] of 0.00438 s⁻¹. This molecule also had a kon in assay [3] of 277000 M⁻¹ s⁻¹.

As a reminder, the EC50 is the concentration giving half of the maximal effect. A high value points to a less potent agent. In general, Kd refers to a measure of binding affinity in units of concentration. For orientation: koff means the rate constant with which the complex falls apart. A low value points to slow dissociation. Broadly, the kon is a measure of how fast the partners come together.
